# From patent US20090136516A1 (DUKE UNIVERSITY, published 2009)
# T1: human CD20 (human, UniProt P11836 1-297)
# T1 construct: whole, on cells; also called cell surface CD20
# T1 sequence (looked up): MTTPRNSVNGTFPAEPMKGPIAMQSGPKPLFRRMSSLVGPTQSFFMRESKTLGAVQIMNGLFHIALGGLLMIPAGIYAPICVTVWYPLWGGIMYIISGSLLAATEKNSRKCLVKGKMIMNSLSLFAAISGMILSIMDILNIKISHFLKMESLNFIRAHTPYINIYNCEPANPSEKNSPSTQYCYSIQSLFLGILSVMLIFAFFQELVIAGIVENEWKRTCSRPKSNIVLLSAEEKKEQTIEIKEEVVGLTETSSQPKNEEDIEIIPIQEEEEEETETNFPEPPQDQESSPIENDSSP
# T2: mouse CD20 (mouse, UniProt P19437 1-291)
# T2 construct: whole, on cells; Endogenous mouse CD20 on primary B cells; also called cell-surface CD20
# T2 sequence (looked up): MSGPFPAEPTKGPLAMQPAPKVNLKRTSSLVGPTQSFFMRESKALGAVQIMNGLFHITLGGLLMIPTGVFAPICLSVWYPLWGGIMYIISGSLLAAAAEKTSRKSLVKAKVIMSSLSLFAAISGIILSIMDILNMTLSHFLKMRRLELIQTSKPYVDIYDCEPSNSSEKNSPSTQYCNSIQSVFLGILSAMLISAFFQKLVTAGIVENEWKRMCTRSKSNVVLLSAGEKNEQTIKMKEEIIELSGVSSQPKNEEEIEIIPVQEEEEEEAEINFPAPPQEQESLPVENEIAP
# B1: 1F5 anti-CD20 monoclonal antibody (antibody, V domains shown)
# VH: QVQLRQPGAELVKPGASVKMSCKASGYTFTSYNMHWVKQTPGQGLEWIGAIYPGNGDTSYNQKFKGKATLTADKSSSTAYMQLSSLTSEDSAVYYCARSHYGSNYVDYFDYWGQGTTLTVSS
# VL: DIVLSQSPAILSASPGEKVTMTCRASSSLSFMHWYQQKPGSSPKPWIYATSNLASGVPARFSGSGSGTSYSLTISRVEAEDAATYFCHQWSSNPLTFGAGTKLELK
# B2: B9E9 anti-CD20 monoclonal antibody (antibody, V domains shown)
# VH: QVQLVQSGAELVKPGASVKMSCKASGYTFTSYNMHWVKQTPGQGLEWIGAIYPGNGDTSYNQKFKGKATLTADKSSSTAYMQLSSLTSEDSAVYYCARAQLRPNYWYFDVWGAGTTVTVSS
# VL: DIVLSQSPAILSASPGEKVTMTCRASSSVSYMHWYQQKPGSSPKPWIYATSNLASGVPARFSGSGSGTSYSLTISRVEAEDAATYYCQQWISNPPTFGAGTKLELK
# B3: HB20-3 monoclonal antibody (antibody, V domains shown)
# VH: EVQLQESGAELVKPGASVKMSCKASGFTFTNYNMHWLKQTPGQGLEWIGAIYPENGDTSYNQKFKGKATLTADKASSTAYMHLSSLTSEDSAVYFCARFYYYGSYYGAMDYWGQGTSVTVSS
# VL: DIQMTQSPASLSASVGETVTITCRASGNIHNYLAWYQQKQGKSPQLLVYNAKTLADGVPSRFSGSGSGTQFSLKINSLQPEDFGSYYCQHFWSTPWTFGGGTKLEIKR
# notes: Used as tissue culture supernatant; also called HB20-03; HB13c
# B4: HB20-4 monoclonal antibody (antibody, V domains shown)
# VH: EVQLQESGAELVKPGASVKMSCKASGFTFTNYNMHWVKQTPGQGLEWIGAIYPENGDTSYNQRFKGKATLTADKSSSTAYMHLSSLTSEDTAVYFCARFYYYGSYYGALDYWGQGTSVTVSS
# VL: DIQMTQSPASLSASVGETVTITCRASGSIHNYLAWYQQKLGKSPQLLVYNAKTLADGVPSRFSGSGSGTQFSLKINSLQPEDFGSYYCQHFWSIPWTFGGGTKLEIKR
# notes: Used as tissue culture supernatant; also called HB20-04; HB13d
# B5: HB20-25 monoclonal antibody (antibody, V domains shown)
# VH: EVQLQESGAELVKPGASVKMSCKASGFRFTNYNLHWVKQTPGQGLEWIGAIYPGNGETSYNQKFKGKATLTADKSSSTAYMQLRSLTSGDSAVYYCARFYYYGSSYGAMDYWGQGTSVTVSS
# VL: DIQMTQSPASLSVSVGETVTITCRASENIYSNLAWYQQKQGKSPQLLVYAATNLADGVPSRFSGSGSGTQYSLKINSLQSEDFGSYYCQHFWGIPWTFGGGTKLEIKR
# notes: Used as tissue culture supernatant
# B6: MB20-1 monoclonal antibody (antibody, V domains shown)
# VH: EVQLQESGGGLVQPGGSLKLSCAASGFTFSDYGMAWVRQAPRKGPEWVAFISNLAYSIYYADTVTGRFTISRENAKNTLYLEMSSLRSEDTAMYFCTRTGYYALDYWGQGTSVTVSS
# VL: NIMMTQSPSSLAVSAGEKVTMRCKSSQSVLYSSKRKNYLAWYQQKPGKSPTLLIYWASTRESGVPDRFTGSGSGTDFTLTITSVQAEDLAVYYCHQYLSSFTFGGGTKLEIKR
# notes: Mouse anti-mouse CD20 hybridoma antibody, IgG1; also called MB20-01
# B7: MB20-13 monoclonal antibody (antibody, V domains shown)
# VH: EVQLQESGGGLVQPGGSLKLSCAASGFTFSDYGMAWVRQAPRKGPEWVAFISNLAYSIYYADTVTGRFTISRENAKNTLYLEMSSLRSEDTAMYFCTRTGYYALDYWGQGTSVTVSS
# VL: EIVLAQSPTTTAASPGEKITITCSASSSITSNYLHWYQQKPGFSPKLLIYRTSNLASGVPARFSGSGSGTSYSLTIGTMEAEDVATYYCQQGSSKTLTFGAGTKLELKR
# notes: Mouse anti-mouse CD20 hybridoma antibody, IgG3
# B8: MB20-18 monoclonal antibody (antibody, V domains shown)
# VH: EVQLQESGLDLVKPGASVKISCKASGYTFTDYYMKWVKQSHGKSLDWIGDINPNNGDIIYNQKFEGKATLTVDKSSSTAYMELRSLTSEDSAVYYCARERFAYWGQGTLVTVSA
# VL: SIVMTQTPKFLLVSTGDRVTITCKASQTVTNDLAWYQQKPGQSPKLLIYYASNRYTGVPDRFTGSGYGTDFTFTINTVQAEDLAVYFCQQDYSSPLTFGAGTKLELKR
# notes: Mouse anti-mouse CD20 hybridoma antibody, IgG2b
# B9: MB20-8 monoclonal antibody (antibody, V domains shown)
# VH: EVQLQESGPDLVKPGASVKISCKASGYTFTDYYMKWVKQSHGKSLDWIGDINPNNGDIIYNQKFEGKATLTVDKSSSTAYMELRSLTSEDSAVYYCARERFAYWGQGTLVTVSA
# VL: EIVLTQSPTTMAASPGEKITITCSVSSNIRSNYLHWYQQKPGFSPKLLIYRTSNLASGVPARFSGSGSGTSYSLTIGTMKAEDVATYYCQQGSSIPLTFGAGTKLELKR
# notes: Mouse anti-mouse CD20 hybridoma antibody, IgG2b; also called MB20-08
# B10: MB20-14 monoclonal antibody (antibody, V domains shown)
# VH: EVQLQESGPELVKPGASVKISCKASGYMFTDYYIKWVKQSHGKSLEWIGDINPNNGDTIYNQKFKGKATLTVDKSSNTAYMDLRILTSEDSAVYYCARERFAYWGQGTLVTVSA
# VL: EIVLTQSPTTMAASPGEKITITCSVSSSIRSNYLHWYQQKPGFSPKLLIYRTSNLASGVPARFSGSGSGTSYSLTVATMEAEDVATYYCQQGSSIPLTFGAGTKLELKR
# notes: Mouse anti-mouse CD20 hybridoma antibody, IgG1
# B11: MB20-10 monoclonal antibody (antibody, V domains shown)
# VH: EVQLQESGPDLVKPGASVKISCKASGYTFTDYYMKWVKQSHGKSLDWIGDINPNNGDIIYNQKFEGKATLTVDKSSSTAYMELRSLTSEDSAVYYCARERFAYWGQGTLVTVSA
# VL: EIVLTQSPTTMAASPGEKITITCSVSSNIRSNYLHWYQQKPGFSPKLLIYRTSNLASGVPARFSGSGSGTSYSLTIGTMKAEDVATYYCQQGSSIPLTFGAGTKLELKR
# notes: as for B8
# B12: MB20-2 monoclonal antibody (antibody, V domains shown)
# VH: EVQLQESGPELVKPGASVKISCKASGYMFTDYYIKWVKQSHGKSLEWIGDINPNNGDTIYNQKFKGKATLTVDKSSNTAYMDLRSLTSEDSAVYYCARERFAYWGQGTLVTVSA
# VL: EIVLTQSPTTMAASPGEKITITCSVSSSIRSNYLHWYQQKPGFSPKLLIYRTSNLASGVPARFSGSGSGTSYSLTVATMEAEDVATYYCQQGSSIPLTFGAGTKLELKR
# notes: Mouse anti-mouse CD20 hybridoma antibody, IgG1; also called MB20-02
# B13: MB20-7 monoclonal antibody (antibody, V domains shown)
# VH: EVQLQESGPDLVKPGASVKISCKASGYMFTDYYMKWVKQSHGKSLEWIGDINPNNGDTTYNQKFEGKATLTVDKSSSTAYMELRSLTSEDSAVYYCARERFAYWGQGTLVTVSA
# VL: ELVLTQSPTTKAASPGEKITITCSVSSSIRSNYLHWYQQRPGFSPKLLIYRTSNLASGVPARFSGSGSGTSYSLTIGTMEAEDVATYYCQQGSSLPLTFGAGTKLELKR
# notes: Mouse anti-mouse CD20 hybridoma antibody, IgG2b; also called MB20-07
# How the values were obtained:
# human CD20 [1] = molecular target: T1, human CD20; test: indirect immunofluorescence, flow cytometry, BJAB cells, saturating mAb
# Experimental: (§1) Reactivity of human blood lymphocytes and the Raji, BJAB or DHL-4 B lymphoblastoid cell lines with anti-CD20 monoclonal antibodies at saturating concentrations or with secondary antibody alone (control). The anti-CD20 monoclonal antibodies were used at concentrations that were determined to be saturating and that gave optimal staining. 1F5, B9E9 and 1H4 (IgG2a) monoclonal antibodies were used as ascites fluid diluted 1:200. HB20-3, -4 and -25 monoclonal antibodies were used as tissue culture supernatant fluid. B1 monoclonal antibody was used at either 10 μg/mL of purified monoclonal antibody or as tissue culture supernatant fluid. In all cases, monoclonal antibody staining was visualized using PE-conjugated isotype-specific secondary antibodies with flow cytometry analysis. Values represent the mean linear fluorescence intensity of staining for each B cell population as determined by flow cytometry analysis. Results are representative of those obtained in ≧3 experiments.
# human CD20 [2] = molecular target: T1, human CD20; test: indirect immunofluorescence, flow cytometry, Raji cells, saturating mAb
# Experimental: as §1
# human CD20 [3] = molecular target: T1, human CD20; test: indirect immunofluorescence, flow cytometry, DHL-4 cells, saturating mAb
# Experimental: as §1
# human CD20 [4] = molecular target: T1, human CD20; test: indirect immunofluorescence, flow cytometry, human blood B cells, saturating mAb
# Experimental: as §1
# mouse CD20 = molecular target: T2, mouse CD20; test: flow cytometry, mouse spleen CD19+ B cells, mAb at 0.5 µg/mL, isotype-specific secondary antibody
# Experimental: Twelve mouse anti-mouse CD20 monoclonal antibodies, with representatives of each IgG isotype, were assessed for their ability to bind B cells and deplete them in vivo. Each monoclonal antibody reacted uniformly with CD19⁺ primary B cells in vitro with characteristic mean fluorescence intensities that were independent of monoclonal antibody isotype (FIG. 6A). When monoclonal antibody reactivity with primary B cells was assessed over a range of monoclonal antibody concentrations, most monoclonal antibodies reached saturating levels of staining when used at concentrations between 1-10 μg/mL (FIG. 6B). […] When all monoclonal antibodies were used at 0.5 μg/mL, each monoclonal antibody reacted uniformly with CD19⁺ primary B cells with characteristic low to high mean fluorescence intensities (FIG. 6C, Table 5). Similar results were obtained using a mouse CD20 cDNA-transfected pre-B cell line with anti-mouse Ig secondary antibody. Based on this analysis, the MB20-1 monoclonal antibody represented monoclonal antibodies with the lowest relative affinity/avidity, while the MB20-18 monoclonal antibody reacted strongly with B cells and stained B cells at the highest levels of all 12 anti-CD20 monoclonal antibodies (Table 5).
Molecule,mean linear fluorescence intensity (human CD20 [1]),mean linear fluorescence intensity (human CD20 [2]),mean linear fluorescence intensity (human CD20 [3]),mean linear fluorescence intensity (human CD20 [4]),B cell reactivity (mean linear fluorescence intensity) (mouse CD20),other results
B1 anti-CD20 monoclonal antibody,,,,,,mean linear fluorescence intensity (mean linear fluorescence intensity) (human CD20 [1]): 700; mean linear fluorescence intensity (mean linear fluorescence intensity) (human CD20 [2]): 944; mean linear fluorescence intensity (mean linear fluorescence intensity) (human CD20 [3]): 486; mean linear fluorescence intensity (mean linear fluorescence intensity) (human CD20 [4]): 277
B1,386 mean linear fluorescence intensity,455 mean linear fluorescence intensity,169 mean linear fluorescence intensity,104 mean linear fluorescence intensity,,
B2,377 mean linear fluorescence intensity,438 mean linear fluorescence intensity,162 mean linear fluorescence intensity,112 mean linear fluorescence intensity,,
B3,1200 mean linear fluorescence intensity,2220 mean linear fluorescence intensity,765 mean linear fluorescence intensity,469 mean linear fluorescence intensity,,
B4,1100 mean linear fluorescence intensity,1580 mean linear fluorescence intensity,578 mean linear fluorescence intensity,397 mean linear fluorescence intensity,,
B5,849 mean linear fluorescence intensity,1350 mean linear fluorescence intensity,514 mean linear fluorescence intensity,227 mean linear fluorescence intensity,,
B6,,,,,69 mean linear fluorescence intensity,
B7,,,,,603 mean linear fluorescence intensity,
B8,,,,,729 mean linear fluorescence intensity,
B9,,,,,240 mean linear fluorescence intensity,
B10,,,,,166 mean linear fluorescence intensity,
B11,,,,,317 mean linear fluorescence intensity,
B12,,,,,209 mean linear fluorescence intensity,
B13,,,,,525 mean linear fluorescence intensity,
